Three molecules from US20200317768A1 (published 2020) can be followed below.

What all share (experiment): SPR (BIACORE), 25 C, antibody captured, FcgR as analyte; KD of SG1 divided by KD of variant;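 also: relative to parent M103205H795-SG1 carrying the SG1 human heavy chain constant region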
For test [1], the target named is T1, cynomolgus monkey FcγRIIa1 extracellular domain, His-tagged (cynomolgus monkey).
T1 construct: also called cyno FcγRIIa1; FcgRIIa1; not shown: C-terminal His-tag
T1 chain: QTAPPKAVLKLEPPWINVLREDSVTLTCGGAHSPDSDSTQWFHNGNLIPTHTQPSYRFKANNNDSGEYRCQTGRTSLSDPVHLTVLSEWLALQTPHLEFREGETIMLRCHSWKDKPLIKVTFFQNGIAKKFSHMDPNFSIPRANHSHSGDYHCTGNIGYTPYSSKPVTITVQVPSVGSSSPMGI
The protocol: (§1) The kinetic analysis of interactions between these antibodies and FcγR was carried out using BIACORE® T200 or BIACORE® 4000 (GE Healthcare). HBS-EP+ (GE Healthcare) was used as the running buffer, and the measurement temperature was set to 25° C. A chip produced by immobilizing Protein A. Protein A/G or mouse anti-human IgG kappa light chain (BD Biosciences) onto a Series S Sensor Chip CM4 or CM5 (GE Healthcare) by the amine-coupling method was used. […] After the measurement, the antibody captured on the chip was washed off by allowing reaction with 10 mM glycine-HCl, pH1.5 and 25 mM NaOH so that the chip was regenerated and used repeatedly. The sensorgrams obtained as measurement results were analyzed by the 1:1 Langmuir binding model using the BIACORE® Evaluation Software to calculate the binding rate constant ka (L/mol/s) and dissociation rate constant kd (l/s), and the dissociation constant KD (mol/L) was calculated from these values. […] Regarding such interactions, KD values were calculated using the following 1:1 binding model described in BIACORE® T100 Software Handbook BR1006-48 Edition AE.

Test [2] deals with T2, cynomolgus monkey FcγRIIa2 extracellular domain, His-tagged (cynomolgus monkey).
T2 construct: also called cyno FcγRIIa2; FcgRIIa2; not shown: C-terminal His-tag
T2 chain: T1 chain with P95T, T121A, I127K, A128S, K130N, D135N, R142Q
The protocol:
as §1

Test [3] addresses T3, cynomolgus monkey FcγRIIa3 extracellular domain, His-tagged (cynomolgus monkey).
T3 construct: also called cyno FcγRIIa3; FcgRIIa3; not shown: C-terminal His-tag
T3 chain: T1 chain with P95T, T121A, A128S, H133P, D135N
As for the experimental part: as §1

Test [4] deals with T4, cynomolgus monkey FcγRIIb extracellular domain, His-tagged (cynomolgus monkey).
T4 construct: also called cyno FcγRIIb; cynoFcγRIIb; not shown: C-terminal His-tag
T4 chain: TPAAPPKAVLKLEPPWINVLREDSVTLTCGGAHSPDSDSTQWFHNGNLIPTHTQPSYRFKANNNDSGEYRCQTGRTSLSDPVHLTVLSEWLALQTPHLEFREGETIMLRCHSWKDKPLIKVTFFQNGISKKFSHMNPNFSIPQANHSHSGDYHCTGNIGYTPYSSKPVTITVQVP
As for the experimental part: as §1

In test [5] the target is T5, cynomolgus monkey FcγRIIIaS extracellular domain, His-tagged (cynomolgus monkey, UniProt Q8SPW2 21-206 at identity 1.00)).
T5 construct: also called cyno FcγRIIIaS; FcgRIIIaS; not shown: C-terminal His-tag
T5 chain: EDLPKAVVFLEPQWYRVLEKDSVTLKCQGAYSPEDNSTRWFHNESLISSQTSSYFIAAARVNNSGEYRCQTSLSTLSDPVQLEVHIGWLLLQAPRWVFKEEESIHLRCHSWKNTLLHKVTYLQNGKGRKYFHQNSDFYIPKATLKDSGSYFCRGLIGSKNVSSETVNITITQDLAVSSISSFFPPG
The protocol: as §1

Test [6] concerns the target T6, human FcγRIIaH extracellular domain, His-tagged (human, UniProt P12318 34-217).
T6 construct: also called human FcγRIIa (type H); FcgRIIaH; not shown: C-terminal His-tag
T6 sequence: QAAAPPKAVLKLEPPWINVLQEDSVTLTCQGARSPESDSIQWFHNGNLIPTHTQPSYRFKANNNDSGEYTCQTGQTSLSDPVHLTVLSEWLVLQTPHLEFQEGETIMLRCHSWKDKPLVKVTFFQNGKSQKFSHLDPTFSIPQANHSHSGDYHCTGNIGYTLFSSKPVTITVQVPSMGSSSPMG
As for the experimental part: as §1

Test [7] has as its target T7, human FcγRIIaR extracellular domain, His-tagged (human, UniProt P12318 34-217).
T7 construct: also called human FcγRIIa (type R); FcgRIIaR; not shown: C-terminal His-tag
T7 chain: T6 sequence with H134R
The protocol:
as §1

Test [8] addresses T8, human FcγRIIb extracellular domain, His-tagged (human, UniProt P31994 43-217).
T8 construct: also called FcgRIIb (human); not shown: C-terminal His-tag
T8 sequence: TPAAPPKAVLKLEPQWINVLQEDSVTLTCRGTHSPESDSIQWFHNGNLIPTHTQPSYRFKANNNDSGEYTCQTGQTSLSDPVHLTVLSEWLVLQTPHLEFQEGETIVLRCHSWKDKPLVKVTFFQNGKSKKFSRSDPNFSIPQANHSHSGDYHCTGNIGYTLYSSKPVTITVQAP
As for the experimental part: as §1

In test [9] the target is T9, human FcγRIIIaV extracellular domain, His-tagged (human, UniProt P08637 17-208).
T9 construct: also called human FcγRIIIa (V158); FcgRIIIaV; not shown: C-terminal His-tag
The protocol:
as §1

Substitutions are numbered along the chain they refer to.

T9 sequence (P08637 17-208 F176V): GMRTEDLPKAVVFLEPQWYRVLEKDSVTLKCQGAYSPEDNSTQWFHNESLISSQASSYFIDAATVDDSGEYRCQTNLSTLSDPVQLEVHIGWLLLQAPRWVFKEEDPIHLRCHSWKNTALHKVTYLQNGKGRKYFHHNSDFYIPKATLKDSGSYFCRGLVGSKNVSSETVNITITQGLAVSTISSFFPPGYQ

B1: M103205H795-MY456 / M103202L889-SK1 (antibody, human IgG1, kappa)
heavy: QVTLKESGPVLVKPTETLTLTCTVSGIDLSHDDISWVRQAPGKGLEWVGIISYAGSTYYASWAKGRLTISKDTSKNQVVLTMTNMDPVDTATYYCARGVPAYSHGGDLWGQGTLVTVSSASTKGPSVFPLAPSSKSTSGGTAALGCLVKDYFPEPVTVSWNSGALTSGVHTFPAVLQSSGLYSLSSVVTVPSSSLGTQTYICNVNHKPSNTKVDKKVEPKSCDKTHTCPPCPAVELLTGPSVFLFPPKPKDTLMISRTPEVTCVVVDVSDEDPEVKFNWYVDGVEVHNAKTKPREEQYNSTYRVVSVLTVLHQDWLNGKEYKCKVSNKALPKPIEKTISKAKGQPREPQVYTLPPSREEMTKNQVSLTCLVKGFYPSDIAVEWESNGQPENNYKTTPPVLDSDGSFFLYSKLTVDKSRWQQGNVFSCSVMHEALHNHYTQKSLSLSP
light: DIVMTQSPATLSLSPGERATLSCTSSQSVYHANWLSWFQQKPGQPPKLLIYWASTLAYGVPSRFSGSGSGTDFTLTISSLQPEDAATYYCAGGYGGGRYAFGQGTKVEIKRTVAAPSVFIFPPSDEQLKSGTASVVCLLNNFYPREAKVQWKVDNALQSGNSQESVTEQDSKDSTYSLSSTLTLSKADYEKHKVYACEVTHQGLSSPVTKSFNRGEC
notes: substitution positions are EU numbers
B1: the “KD fold (SG1 = 1)” value in [1] worked out at 1.7 fold; in test [2], 3 fold; in [3], 5 fold; in test [4] it was 3.5 fold; in test [5], 0.2 fold; in test [6], 4.1 fold. Also, the “KD fold (SG1 = 1)” value in test [7] is 3.8 fold; in test [8] it was 4.2 fold; in test [9], 0.2 fold.

B2: M103205H795-MY458 / M103202L889-SK1 (antibody, human IgG1, kappa)
heavy: B1 heavy with V234Y
light: B1 light
notes: as for B1
For B2, the “KD fold (SG1 = 1)” value in test [1] was 1.8 fold; in test [2], 3.2 fold; in [3], 5.7 fold; in test [4], 4.2 fold; in [5], 0.3 fold; in [6], 4.3 fold. Also, the “KD fold (SG1 = 1)” value in test [7] was 6.5 fold; in test [8], 4.6 fold; in [9], 0.2 fold.

B3: M103205H795-MY457 / M103202L889-SK1 (antibody, human IgG1, kappa)
heavy: B1 heavy with V234W
light: B1 light
notes: as for B1
With B3, the “KD fold (SG1 = 1)” value stood at 4 fold in test [1]; 6.1 fold in test [2]; 14.2 fold in test [3]; 9 fold in test [4]; 0.3 fold in test [5]; 5.3 fold in test [6]. Besides, the “KD fold (SG1 = 1)” value is 15.1 fold in test [7], 13.9 fold in test [8] and 0.2 fold in test [9].
